Measured values from publication PMC5114850 (Science (New York, N.Y.), 2016).

Molecular target: recombinant human calmodulin (human, UniProt P0DP23 1-149)
Assay: ITC

Kd: 2560 ± 722 nM | dH: -7.8 ± 0.8 kcal/mol | stoichiometry N: 1.01 ± 0.07 sites
Binder: Ac-EDLSSSYYRDYVKKILKKKK-NH2 [CaMBP0 peptide of zebrafish STRA6]
